According to patent publication US20260209362A1 (VIB VZW, published 2026):

T1: human IL-12Rβ2 expressed on cells (human, UniProt Q99665 24-862)
T1 sequence: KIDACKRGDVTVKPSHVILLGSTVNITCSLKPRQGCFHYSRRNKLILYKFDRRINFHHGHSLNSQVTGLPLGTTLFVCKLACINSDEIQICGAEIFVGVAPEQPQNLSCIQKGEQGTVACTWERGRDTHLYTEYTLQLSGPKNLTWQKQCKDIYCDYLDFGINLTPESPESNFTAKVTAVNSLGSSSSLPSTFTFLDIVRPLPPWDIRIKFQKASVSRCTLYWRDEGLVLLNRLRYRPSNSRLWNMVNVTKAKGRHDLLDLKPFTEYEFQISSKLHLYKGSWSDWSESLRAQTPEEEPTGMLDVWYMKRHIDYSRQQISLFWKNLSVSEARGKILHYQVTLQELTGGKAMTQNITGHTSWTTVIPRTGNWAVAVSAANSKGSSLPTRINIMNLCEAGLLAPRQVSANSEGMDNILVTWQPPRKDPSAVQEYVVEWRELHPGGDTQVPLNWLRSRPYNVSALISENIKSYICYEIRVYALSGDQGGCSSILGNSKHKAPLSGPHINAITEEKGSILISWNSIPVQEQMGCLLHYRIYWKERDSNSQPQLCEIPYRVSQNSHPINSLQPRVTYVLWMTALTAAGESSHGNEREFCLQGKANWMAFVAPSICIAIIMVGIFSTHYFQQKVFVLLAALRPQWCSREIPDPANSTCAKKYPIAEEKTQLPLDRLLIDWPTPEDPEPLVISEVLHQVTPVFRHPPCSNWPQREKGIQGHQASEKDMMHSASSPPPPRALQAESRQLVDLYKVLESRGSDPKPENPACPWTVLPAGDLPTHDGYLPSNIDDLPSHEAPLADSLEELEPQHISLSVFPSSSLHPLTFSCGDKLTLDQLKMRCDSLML

T2: biotinylated recombinant human IL-12Rβ2 (human, UniProt Q99665 24-622, random biotinylated)
T2 construct: Recombinant protein produced in-house; also called hIL-12RB2; human IL-12RB2
T2 sequence: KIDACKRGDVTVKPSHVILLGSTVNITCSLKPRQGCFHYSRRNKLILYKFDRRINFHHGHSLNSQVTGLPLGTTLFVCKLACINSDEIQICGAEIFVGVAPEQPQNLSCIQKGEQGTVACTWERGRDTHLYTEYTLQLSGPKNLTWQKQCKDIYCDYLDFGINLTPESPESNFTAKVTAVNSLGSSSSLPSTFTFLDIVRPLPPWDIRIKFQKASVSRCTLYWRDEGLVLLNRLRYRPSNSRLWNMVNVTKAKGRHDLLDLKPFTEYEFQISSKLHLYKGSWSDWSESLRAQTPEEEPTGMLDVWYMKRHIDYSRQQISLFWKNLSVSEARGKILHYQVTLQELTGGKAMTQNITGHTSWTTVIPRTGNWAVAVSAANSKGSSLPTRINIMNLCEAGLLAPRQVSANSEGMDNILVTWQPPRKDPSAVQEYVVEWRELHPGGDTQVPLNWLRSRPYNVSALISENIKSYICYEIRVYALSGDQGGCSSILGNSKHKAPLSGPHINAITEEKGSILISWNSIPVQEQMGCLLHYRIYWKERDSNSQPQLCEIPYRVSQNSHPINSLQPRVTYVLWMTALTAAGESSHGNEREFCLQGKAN

T3: biotinylated recombinant mouse IL-12Rβ2 (mouse, UniProt P97378 24-637, random biotinylated)
T3 construct: Recombinant protein produced in-house; also called mIL-12RB2; mouse IL-12RB2
T3 sequence: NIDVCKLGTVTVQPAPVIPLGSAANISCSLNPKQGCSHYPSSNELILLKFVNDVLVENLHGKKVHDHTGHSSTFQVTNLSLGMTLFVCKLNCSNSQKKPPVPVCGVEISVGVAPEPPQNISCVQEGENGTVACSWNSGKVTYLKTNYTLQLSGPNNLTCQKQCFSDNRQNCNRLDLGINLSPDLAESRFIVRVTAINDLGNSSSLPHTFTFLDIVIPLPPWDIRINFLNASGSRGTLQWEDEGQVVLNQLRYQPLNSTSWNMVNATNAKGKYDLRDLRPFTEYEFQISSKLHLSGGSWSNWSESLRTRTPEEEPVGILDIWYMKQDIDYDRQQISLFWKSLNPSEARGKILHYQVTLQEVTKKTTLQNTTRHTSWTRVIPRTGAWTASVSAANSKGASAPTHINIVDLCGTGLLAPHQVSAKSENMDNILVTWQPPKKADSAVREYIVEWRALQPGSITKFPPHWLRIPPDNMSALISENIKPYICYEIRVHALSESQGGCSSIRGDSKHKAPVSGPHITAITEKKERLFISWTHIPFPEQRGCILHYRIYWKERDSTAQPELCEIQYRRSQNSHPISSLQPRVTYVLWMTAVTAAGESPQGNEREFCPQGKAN


Key:
[1] = biological target: T1, human IL-12Rβ2 expressed on cells; assay: cell-based or functional assay
[2] = biological target: T2, biotinylated recombinant human IL-12Rβ2; assay: BLI, P.E., off-rate ranking
[3] = biological target: T2, biotinylated recombinant human IL-12Rβ2; assay: ELISA, P.E., biotinylated antigen
[4] = biological target: T3, biotinylated recombinant mouse IL-12Rβ2; assay: ELISA, P.E., biotinylated antigen

| Binder | % Specific Cell Lysis at 0.00125 ug/mL [1] | % Specific Cell Lysis at 0.025 ug/mL [1] | % Specific Cell Lysis at 0.5 ug/mL [1] | % Specific Cell Lysis at 10 ug/mL [1] | Response [2] | koff [2] | ELISA hIL-12RB2/control [3] | ELISA mIL-12RB2/control [4] |
| --- | --- | --- | --- | --- | --- | --- | --- | --- |
| 20399-FcDE (Fc fusion) VHH-Fc chain: QVQLQESGGGLVQPGGSLRLSCAASGSILRINLMGWYRQVPGKQRELVAEMSTGGSTTYVDSVEGRFTISRDNAKNTVYLQMNSLKPEDTAVYYCNAKAWQLGRLENDDWGQGTQVTVSSAPELLGGPDVFLFPPKPKDTLMISRTPEVTCVVVDVSHEDPEVKFNWYVDGVEVHNAKTKPREEQYNSTYRVVSVLTVLHQDWLNGKEYKCKVSNKALPAPEEKTISKAKGQPREPQVYTLPPSRDELTKNQVSLTCLVKGFYPSDIAVEWESNGQPENNYKTTPPVLDSDGSFFLYSKLTVDKSRWQQGNVFSCSVMHEALHNHYTQKSLSLSPGK | 61% | 63.1% | 67.1% | 72.4% |  |  |  |  |
| anti-IL-12Rβ2 VHH clone 3CAHS41 (clone ID 20394) (VHH, not shown: small tags and cut ends, periplasmic extract) VHH: QVQLQESGGGLVQAGDSLRLSCAASGRTFDTYIVGWFRQAPGKEREFVSALSWSDDTTIRDDSLRGRFTISRDNAKNTVYLLMNSLKPEDTAVYYCAAKAKPPAATWSSYRNREWYDYWGQGTQVTVSS |  |  |  |  | 0.609 | 0.00441 s⁻¹ | 8.77 | 1.35 |
| 20378-FcDE (Fc fusion) VHH-Fc chain: QVQLQESGGGLVQAGDSLRLSCTASGHTFSRYTTIGWFRQAPGKDREFVAAIRWSGDITDYADAVKGRFTISRDNVKNTVYLQMNSLNPEDTAVYYCARGYSEYGVLSRNRGLYAYWGQGTQVTVSSAPELLGGPDVFLFPPKPKDTLMISRTPEVTCVVVDVSHEDPEVKFNWYVDGVEVHNAKTKPREEQYNSTYRVVSVLTVLHQDWLNGKEYKCKVSNKALPAPEEKTISKAKGQPREPQVYTLPPSRDELTKNQVSLTCLVKGFYPSDIAVEWESNGQPENNYKTTPPVLDSDGSFFLYSKLTVDKSRWQQGNVFSCSVMHEALHNHYTQKSLSLSPGK | 52.4% |  |  |  |  |  |  |  |
| 20373-FcDE (Fc fusion) VHH-Fc chain: QVQLQESGGGLVQAGGSLVLSCAASGSAALIFLMSWYRQAPGKQRELVAEVSRGGSTTYADSVEGRFTISRDNAKNIVDLQMNSLKPEDTAVYYCKADQNYGDSLRSSWGQGTQVTVSSAPELLGGPDVFLFPPKPKDTLMISRTPEVTCVVVDVSHEDPEVKFNWYVDGVEVHNAKTKPREEQYNSTYRVVSVLTVLHQDWLNGKEYKCKVSNKALPAPEEKTISKAKGQPREPQVYTLPPSRDELTKNQVSLTCLVKGFYPSDIAVEWESNGQPENNYKTTPPVLDSDGSFFLYSKLTVDKSRWQQGNVFSCSVMHEALHNHYTQKSLSLSPGK | 48.9% | 61.1% | 67.4% | 70.7% |  |  |  |  |
| anti-IL-12Rβ2 VHH clone 2CRH62 (clone ID 20368) (VHH, not shown: small tags and cut ends, periplasmic extract) VHH: QVQLQESGGGLVQPGGSLRLSCVESGRTFTVYDMGWFRQAPGKEREIVAAISADGATSIYQDSVKGRFTISRDNDAKNTVYLQMNSLKPEDTAVYYCAAGRSLIYNLYRANNTDYWGQGTQVTVSS |  |  |  |  | 0.643 | 0.00622 s⁻¹ | 3.51 | 0.868 |
| anti-IL-12Rβ2 VHH clone 3CRHS31 (clone ID 20418) (VHH, not shown: small tags and cut ends, periplasmic extract) VHH: QVQLQESGGGLVQAGGSLRLSCAASGFTFSTYAMSWVRQAPGKGLEWVSSVNSGGLSTDYADSVEGRFTISRDDAKNMLFLQMNSLKPEDTARYYCAKYEDCSDYVCDRAGYWGQGTQVTVSS |  |  |  |  | 0.234 | 0.00429 s⁻¹ | 10.9 | 1.16 |
| 20372-FcDE (Fc fusion) VHH-Fc chain: QVQLQESGGGLVQAGGSLRLSCAASARTESMYAMAWFRQAPGKEREIVAGIIQSGGTTYISDYMKGRFSIDRGNAENTVYLQMDSLKPEDTAVYSCAAKVSSGTPSDIQISQSRWYDHWGQGTQVTVSSAPELLGGPDVFLFPPKPKDTLMISRTPEVTCVVVDVSHEDPEVKFNWYVDGVEVHNAKTKPREEQYNSTYRVVSVLTVLHQDWLNGKEYKCKVSNKALPAPEEKTISKAKGQPREPQVYTLPPSRDELTKNQVSLTCLVKGFYPSDIAVEWESNGQPENNYKTTPPVLDSDGSFFLYSKLTVDKSRWQQGNVFSCSVMHEALHNHYTQKSLSLSPGK | 51.1% |  | 66.9% | 69.9% |  |  |  |  |
| 20394-FcDE (Fc fusion) VHH-Fc chain: QVQLQESGGGLVQAGDSLRLSCAASGRTFDTYIVGWFRQAPGKEREFVSALSWSDDTTIRDDSLRGRFTISRDNAKNTVYLLMNSLKPEDTAVYYCAAKAKPPAATWSSYRNREWYDYWGQGTQVTVSSAPELLGGPDVFLFPPKPKDTLMISRTPEVTCVVVDVSHEDPEVKFNWYVDGVEVHNAKTKPREEQYNSTYRVVSVLTVLHQDWLNGKEYKCKVSNKALPAPEEKTISKAKGQPREPQVYTLPPSRDELTKNQVSLTCLVKGFYPSDIAVEWESNGQPENNYKTTPPVLDSDGSFFLYSKLTVDKSRWQQGNVFSCSVMHEALHNHYTQKSLSLSPGK | 54% | 52.1% |  | 66% |  |  |  |  |

Other lines, results leading:

| % Specific Cell Lysis at 0.00125 ug/mL [1] | % Specific Cell Lysis at 0.025 ug/mL [1] | % Specific Cell Lysis at 0.5 ug/mL [1] | % Specific Cell Lysis at 10 ug/mL [1] | Response [2] | koff [2] | ELISA hIL-12RB2/control [3] | ELISA mIL-12RB2/control [4] | Binder |
| --- | --- | --- | --- | --- | --- | --- | --- | --- |
|  |  |  |  | 0.376 | 0.00265 s⁻¹ | 4.78 | 1.19 | anti-IL-12Rβ2 VHH clone 3CAHS180 (clone ID 20410) (VHH, not shown: small tags and cut ends, periplasmic extract) VHH: QVQLQESGGGLVQAGDSLRLSCAASGRTFDTYIVGWFRQAPGKEREFVSALSWSDDTTIRDDSLRGRFTLSRDNAKNTVYLLMNSLKPEDTAVYYCAAKAKPPAATWSSYRNREWYDYWGQGTQVTVSS |
|  |  |  |  | 0.576 | 0.00483 s⁻¹ | 7.57 | 0.4 | anti-IL-12Rβ2 VHH clone 3CAH28 (clone ID 20356) (VHH, not shown: small tags and cut ends, periplasmic extract) VHH: QVQLQESGGGLVQSGASLRLSCAASERTLSGYAMGWFRQAPGKEREFVAAIRWSGSSTYYAESVEGRFTISRDNAKNTVYLQMNILKPEDTAVYYCAAGSDYADEYDYWGQGTQVTVSS |
|  |  |  |  | 0.327 | 0.0043 s⁻¹ | 12 | 0.946 | anti-IL-12Rβ2 VHH clone 3CRHS51 (clone ID 20421) (VHH, not shown: small tags and cut ends, periplasmic extract) VHH: QVQLQESGGGLVQPGGSLRLSCAASGFTFSTYAMSWVRQAPGKGLEWVSAVNSGGLSTDYADSVEGRFTISRDDAKNMLFLQMNRLKPEDTARYYCAKYEDCSDYVCDRAGYWGQGTQVTVSS |
|  |  |  |  | 0.59 | 0.00517 s⁻¹ | 3.91 | 1.9 | anti-IL-12Rβ2 VHH clone 3CAH60 (clone ID 20361) (VHH, not shown: small tags and cut ends, periplasmic extract) VHH: QVQLQESGGGLVQPGGSLILSCVASGFAMDYLTMGWSREAPRNEREDISCIDTSGRSTDYLDSVKGRFTISRDNAKNTLYLHMNDLKPEDTAEYYCLASTSYCGAGYEYRGQGTQVTVSS |
|  |  |  |  | 0.4 | 0.00428 s⁻¹ | 3.64 | 0.975 | anti-IL-12Rβ2 VHH clone 3CRH28 (clone ID 20380) (VHH, not shown: small tags and cut ends, periplasmic extract) VHH: QVQLQESGGGLVQPGGSLTLSCAASGFTFSSNAMSWVRQAPGKGLEWVSSISSGGGTTYYTDSVKGRFTTARDNAKNTLYLRMNSLKPEDTAVYYCSKSSTGSGSRGQGTQVTVSS |
